The experiment has as its target T1, CLAMP^40–153 (Drosophila melanogaster, UniProt Q9V9N4 40-153).
T1 construct: Tags and their cleavage are told only in the Supplementary Information; source: E. coli BL21 (DE3), purified (IMAC, anion-exchange chromatography)
T1 sequence (looked up): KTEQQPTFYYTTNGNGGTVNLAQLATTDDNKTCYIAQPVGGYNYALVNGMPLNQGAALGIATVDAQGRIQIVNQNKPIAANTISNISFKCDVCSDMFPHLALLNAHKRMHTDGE
The experiment is described as follows: NMR titration; stable isotope-labeled MSL2 618–655 titrated with unlabeled CLAMP 40–153 (or CLAMP 41–153 L139A/K146E); chemical shift perturbation, fast exchange; 25°C. The settings on record: both partners purified.

B1: MSL2^618–655 (domain or fragment, Drosophila melanogaster, UniProt P50534 618-655, looked up)
chain: ISLVPLNNLQQSQHPLVLVQNEKGEYQGFNIFQGSKPL
notes: Unlabelled or 13C,15N-labelled for NMR; Tags and their cleavage are told only in the Supplementary Information; also called MSL2 peptide; source: E. coli BL21 (DE3), purified (IMAC, anion-exchange chromatography)
For orientation: Kd means the equilibrium constant for the complex coming apart. Consider B1, for which the Kd was 200 ± 100 µM.

Source of the values: publication PMC9226498, “Structural basis for interaction between CLAMP and MSL2 proteins involved in the specific recruitment of the dosage compensation complex in Drosophila” (Nucleic Acids Research, 2022).
